Assay results from US12415833B2, “Method for activating helper T cell” (International Institute of Cancer Immunology, Inc., priority 2010, dated 2025).
No end group written: not given here.

Columns and labels:
Test in all cases: Folding test of HLA class II monomer protein with peptide using HPLC
Type in all cases: binding
Details in all cases: 50-fold molar peptide, 37° C. overnight, compared with control (solvent only), folding criterion not less than 0.1 minute
[1] = target: HLA class II monomer protein DRB1*1502 (Homo sapiens, UniProt P01903+P01911, V115G)
Sequence of HLA class II monomer protein DRB1*1502 (P01903 26-254, other chains not shown): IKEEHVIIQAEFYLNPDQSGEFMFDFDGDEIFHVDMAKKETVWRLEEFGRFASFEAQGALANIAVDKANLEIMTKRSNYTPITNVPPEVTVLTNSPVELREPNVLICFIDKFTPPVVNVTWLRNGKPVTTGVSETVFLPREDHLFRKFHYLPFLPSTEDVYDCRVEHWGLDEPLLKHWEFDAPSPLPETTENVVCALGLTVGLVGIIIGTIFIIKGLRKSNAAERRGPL
Method: (§1) Next, in order to evaluate a binding ability of WT1-332 with MHC class II molecules, a folding test of 7 types of HLA class II monomer proteins (DRB1*1501, 0101, 0405, 0803, 0901, 1502, or DRB4*0101) with WT1-332 was carried out using HPLC. Briefly, a folding reaction solution was prepared by mixing an HLA class II monomer protein, a peptide [a peptide binding to each protein (positive control), a peptide not binding to each protein (negative control), and WT1-332], and a folding buffer. After reacting the solution at 37° C., the retention time was analyzed using HPLC. The folding with WT1-332 was evaluated by utilizing a shift of the retention time due to the binding of an HLA class II monomer protein with a peptide.
(§2) HLA class II monomer proteins which had been freeze-preserved at −80° C. were thawed on ice. The HLA class II monomer proteins thawed were adjusted using a dilution buffer so that they were contained in an amount of 0.05 mg (1×10−^9 mol) in 83 μL.
(§3) About 1 mg of each peptide was weighed by an electronic balance, transferred to a glass vial, and dissolved in DMSO to give a concentration of 20 mg/mL.
(§4) The amount of a peptide which is a 50-fold molar amount relative to an HLA class II monomer protein was calculated using the following calculation formula. Amount of peptide required: 1×10^−9 mol×50=5×10^−8 mol (amount of peptide required) […]×(Molecular weight of peptide)×1,000=(amount of peptide required)(mg) (Amount of peptide required)/[purity of peptide/100]=(amount of peptide added)(mg) [(Amount of peptide added)/20 mg/mL]×1,000=(amount of peptide solution added)(μL) Calculation of Amount of Folding Buffer Added
(§5) As a folding buffer, a 10% amount of a mixed solution of an HLA class II monomer protein and a peptide was added. The amount of the folding buffer added was calculated using the following calculation equation. [83 μL (Amount of HLA class II monomer protein)+(amount of peptide solution in 50-fold molar amount)]×0.1=amount of folding buffer added Analysis of Folding Using HPLC
(§6) To a glass vial charged with an HLA class II monomer protein, a peptide solution and a folding buffer were added in a calculated amount, and the mixture was allowed to stand at 37° C. overnight. HPLC (Waters 2695 Separation Module) was started, and a Seperdex 200 column was equilibrated with an equilibrating buffer. To all samples, 300 μL of the equilibrate buffer was added and well mixed, and a 100 μL portion of the mixture was used as a sample injection volume to calculate the retention time. Analysis time was 50 minutes. The criterion for the folding of an HLA class II monomer protein with a peptide is a shift of the retention time of not less than 0.1 minute as compared with a control (solvent only).

[2] = target: HLA class II monomer protein DRB1*1501 (Homo sapiens, UniProt P01903+P01911)
Method: as §1, §2, §3, §4, §5, §6

[3] = target: HLA class II monomer protein DRB1*0405 (Homo sapiens, UniProt P01903+P01911, A100R/A169T/D86S/F76Y/I96L/K127E/L162R/M171V/N62H/P40V/Q125Y/R42H/S133A/S149N/S66Y/V115G/V209L/W38E)
Method: as §1, §2, §3, §4, §5, §6

[4] = target: HLA class II monomer protein DRB1*0901 (Homo sapiens, UniProt P01903+P01911, A100R/A103E/D57H/D86V/F55Y/F60I/F76Y/I96F/K127E/L162R/M171V/P40D/Q125H/Q99R/R33Q/R42F/S133A/S66N/T210M/V115G/W38K/Y107V/Y59G/Y89S)
Method: as §1, §2, §3, §4, §5, §6

[5] = target: HLA class II monomer protein DRB1*0101 (Homo sapiens, UniProt P01903+P01911, A100R/D57E/F55L/F60I/F76Y/I96L/L162R/M171V/P40L/Q125E/R42F/V115G/Y59C)
Method: as §1, §2, §3, §4, §5, §6

[6] = target: HLA class II monomer protein DRB4*0101 (Homo sapiens, UniProt P01903+P13762, G164S)
Method: as §1, §2, §3, §4, §5, §6

Measured: degree of shift of the retention time

KRYFKLSHLQMHSRKH [WT1-332]
not less than 0.1 minute: all assays above
